Substitutions are numbered along the chain they refer to.
B1: RLuc8.6: third protein, mutant Renilla luciferase 8.6 providing light, 38 kDa (protein)
chain: MASKVYDPEQRKRMITGPQWWARCKQMNVLDSFINYYDSEKHAENAVIFLHGNATSSYLWRHVVPHIEPVARCIIPDLIGMGKSGKSGNGSYRLLDHYKYLTAWFELLNLPKKIIFVGHDWGSALAFHYAYEHQDRIKAIVHMESVVDVIESWMGWPDIEEELALIKSEEGEKMVLENNFFVETLLPSKIMRKLEPEEFAAYLEPFKEKGEVRRPTLSWPREIPLVKGGKPDVVQIVRNYNAYLRASDDLPKLFIESDPGFFYNAIVEGAKKFPNTEFVKVKGLHFLQEDAPDEMGKYIKSFVERVLKNEQ
modifications: RLuc8.6
notes: third protein, mutant Renilla luciferase 8.6 providing light, 38 kDa
B2: RLuc8: third protein, mutant Renilla luciferase 8 providing light, 38 kDa (protein)
chain: B1 chain with S123A, M154D, G155E, E162D, L163I, L185V, Y263S
modifications: RLuc8

Tests used:
[1] = Bioluminescence assay of purified proteins with Co-h substrate (BRET); type: physicochemical; conditions: protein 1 μM, Co-h 50 μM, 1×PBS
Method: In addition, 100 μL of buffer (1×PBS) containing the protein purified in Example 1 (final concentration: 1 μM) was dispensed into a 96-well plate (SPL Cell Culture Plate, 96 well (SPL, Cat #30196)), and bioluminescence assay was then performed using 50 μL of buffer (1×PBS) containing a Co-h substrate solution (final concentration: 50 μM), which is a wild-type 2-deoxy derivative. Bioluminescence intensity was immediately measured at a wavelength of 300 to 800 nm using a Thermo Scientific™ Varioskan™ Flash Multimode Reader.

[2] = Stability of bioluminescence intensity in PBS or normal mouse serum; conditions: buffer (1×PBS) or normal mouse serum, 37° C., protein 10 μM, Co-h 150 μM
Method: Bioluminescence assay was performed by reaction of 30 μL of buffer (1×PBS) containing the purified protein RLuc8.6 or RLuc8.6-KR-LP protein, or RLuc8 or RLuc8-MS-LP protein (final concentration: 10 μM) and 0.8 μL of a Co-h substrate solution (final concentration: 150 μM) in an incubator (37° C.). 30 μL of normal mouse serum (Jackson ImmunoResearch, USA) containing the purified protein (final concentration: 10 μM) and 0.8 μL of a Co-h substrate solution (final concentration: 150 μM) were reacted in an incubator (37° C.). Bioluminescence intensity was immediately measured using GLOMAX.

Molecule | emission in bioluminescence assay (BRET) [1] [nm] | luminescence intensity with increasing reaction time (stability) [2]
B1 | 535 | constant
B2 | 480 | 
